Here are results for 19 molecules from US20240360242A1 (KISOJI BIOTECHNOLOGY, published 2024).

Positions count from the first letter of the chain named.

T1: recombinant human TROP2 extracellular domain (aa 1-274) comprising His tag (human, UniProt P09758 27-274)
T1 construct: Used here for all assays on recombinant human TROP2 (ELISA, immunoblot, SPR, crystal), although only some of them name the catalogue number; also called human recombinant TROP2; recombinant human TROP2 protein; not shown: His tag
T1 sequence: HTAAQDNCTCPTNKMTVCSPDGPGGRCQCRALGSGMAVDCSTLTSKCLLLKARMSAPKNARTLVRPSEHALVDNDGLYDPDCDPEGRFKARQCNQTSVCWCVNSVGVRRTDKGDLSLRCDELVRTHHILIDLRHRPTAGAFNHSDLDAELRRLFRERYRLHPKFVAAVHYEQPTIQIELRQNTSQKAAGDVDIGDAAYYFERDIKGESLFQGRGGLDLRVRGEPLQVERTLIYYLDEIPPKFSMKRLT

B1: KD047 (antibody, V domains shown)
VH: QVQLLESGGGLVQPGGSLRLSCAASGFTFSGSDMSWVRQAPGKGPEWVSYITSGGTTYYADTVKGRFTISRDNSKNTLYLQMNSLRAEDTAVYRCAKSRLTDSHYVEDAWGQGTLVTVSS
notes: KD005 humanized variant
B2: KD062 (antibody, V domains shown)
VH: B1 VH with L5Q, V12I, P45L, V92L
notes: KD005 humanized variant
B3: KD060 (antibody, V domains shown)
VH: B1 VH with L5Q, V12I, P45L, A60P
notes: KD005 humanized variant
B4: KD058 (antibody, V domains shown)
VH: B1 VH with L5Q, V12I, P45L, R94Y
notes: KD005 humanized variant
B5: KD049 (antibody, V domains shown)
VH: B1 VH with L5Q, A60P, L115Q
notes: KD005 humanized variant
B6: KD059 (antibody, V domains shown)
VH: B1 VH with L5Q, V12I
notes: KD005 humanized variant
B7: KD061 (antibody, V domains shown)
VH: B1 VH with L5Q, V12I, P45L, E88D
notes: KD005 humanized variant
B8: KD051 (antibody, V domains shown)
VH: B1 VH with L5Q, A60P, S74A, R86K, A87P, E88D, V92L, L115Q
notes: KD005 humanized variant
B9: KD053 (antibody, V domains shown)
VH: B1 VH with L5Q, V12I, A60P, E88D, V92L
notes: KD005 humanized variant
B10: KD063 (antibody, V domains shown)
VH: B1 VH with L5Q, V12I, Q13E, P45L, L115Q
notes: KD005 humanized variant
B11: KD064 (antibody, V domains shown)
VH: B1 VH with L5Q, V12I, V37Y, P45R
notes: KD005 humanized variant with framework 2 changes
B12: KD048 (antibody, V domains shown)
VH: B1 VH with L5Q, A60P, R94Y, L115Q
notes: KD005 humanized variant
B13: KD030 (antibody, V domains shown)
VH: QVQLQESGGGLVQPGGSLRLSCAASGFPFSSADMSWVRQAPGKGLEWVSYINADGSKTYYADTVKGRFTISRDNSKNTLYLQMNSLRAEDTAVYRCARAKLTDTHYVEDYWGQGTMVTVSS
notes: KD002 humanized variant
B14: KD026 (antibody, V domains shown)
VH: B13 VH with L11M, P14V, L45P, A61P, S75A, R87K, A88P, M116Q
notes: KD002 humanized variant
B15: KD021 (antibody, V domains shown)
VH: B13 VH with Q1E, Q5V, Y59S, S75A, R95Y, M116L
notes: KD002 humanized variant
B16: KD022 (antibody, V domains shown)
VH: B13 VH with Q1E, Q5V, L45P, S75A, R95Y, M116Q
notes: KD002 humanized variant
B17: KD023 (antibody, V domains shown)
VH: B13 VH with Q5V, L45P, A61P, S75A, R95Y, M116Q
notes: KD002 humanized variant
B18: KD024 (antibody, V domains shown)
VH: B13 VH with Q5V, L45P, A61P, S75A, M116Q
notes: KD002 humanized variant
B19: KD025 (antibody, V domains shown)
VH: B13 VH with Q5V, P14V, L45P, A61P, S75A, R87K, A88P, M116Q
notes: KD002 humanized variant

The target in one experiment is T1, recombinant human TROP2 extracellular …. Description: ELISA, coated rh TROP2. The procedure:
(§1) Human TROP2 recombinant proteins were coated on 96-well ELISA plates at the concentration of 1 μg/mL. Plates were covered with adhesive plate cover and stored at 4° C. overnight. The next day, plates were washed 3× with washing buffer (PBS with 0.1% Tween™ 20). Plates were blocked with 2% fat-free BSA in washing buffer for 1 hour at 37° C. During the incubation time, the TROP2 reference antibodies, as well as the humanized variants, were diluted in the blocking buffer to the indicated concentrations. […] After blocking, the blocking buffer was removed from the wells and 100 μL of anti-TROP2 sdAbs dilutions were transferred to the corresponding wells. Plates were covered with adhesive plates cover and incubated at 37° C. for 1 hour. During the primary antibody incubation, the secondary antibody (goat anti-human IgG, HRP conjugated) was diluted 1 in 5000 with the blocking buffer. Plates were washed 3× with blocking buffer, followed by secondary antibody incubation for another 1 hour at 37° C. After the secondary antibody incubation, plates were washed 3× with washing buffer and added with 100 μL of ELISA chemiluminescent substrate (Thermofisher). The luminescence signal was detected by SpectraMax i3x at […].
As for B1, the EC50 was 0.14 nM and the “EC50% to KD005” value was 1.75 ratio to KD005. The like results for B2 were, in that order, 0.14 nM and 1.75 ratio to KD005. The like results for B3 were, in that order, 0.11 nM and 1.38 ratio to KD005. The corresponding values for B4 are 0.1 nM and 1.25 ratio to KD005. Take B5: the EC50 worked out at 0.14 nM and the “EC50% to KD005” value was 1.75 ratio to KD005. The corresponding values for B6 are 0.1 nM and 1.25 ratio to KD005. As for B7, the EC50 turned out to be 0.12 nM and the “EC50% to KD005” value is 1.5 ratio to KD005.

For the molecule B8, the EC50 came to 0.12 nM and the “EC50% to KD005” value was 1.5 ratio to KD005.

As to B9, the EC50 was 0.1 nM and the “EC50% to KD005” value is 1.25 ratio to KD005. The corresponding values for B10 are 0.12 nM and 1.5 ratio to KD005. The corresponding values for B11 are 0.14 nM and 1.75 ratio to KD005. The like results for B12 were, in that order, 0.11 nM and 1.38 ratio to KD005.

The target is the same in a further experiment. The experiment in a line: ELISA, coated rh TROP2. The source holds these as a separate data set. The procedure: as §1
Regarding B13, the concentration for a half-maximal effect (EC50) was 0.12 nM. The same measure, in the same setting: for B14 the value was 0.1 nM.

Consider B15, for which the concentration giving a half-maximal response (EC50) amounted to 4.3 nM. Turning to B16, the half-maximal effective concentration (EC50) was 0.07 nM.

Take B17: the EC50 came out at 0.08 nM. With B18, the EC50 is 0.09 nM. On to B19, for which the EC50 came out at 0.11 nM.
